Where no end group is shown, it is not given here.

The values below come from patent publication US20260242478A1 (published 2026).

Assay [1] addresses T1, Anti-PSMA Fab (SEQ ID NOs: 19, 20).
T1 construct: also called 006 PSMA Fab
In words: phage binding ELISA; PSMA Fab coated wells pre-incubated with PSMA antigen as competitor, anti-M13 HRP detection. A general note: ELISA stands for enzyme-linked immunosorbent assay.
Procedure: (§1) Clonal phage were harvested as crude supernatants and screened via standard ELISAs. […] Prior to the addition of clonal phage. wells were incubated with blocking buffer and PSMA antigen or blocking buffer alone. Without washing or aspirating, clonal phage supernatants were then added to the wells and incubated for a short time. Wells were then washed followed by detection of bound phage using a horse radish conjugated anti-M13 antibody.

Assay [2] has the same target. Briefly: phage binding ELISA; biotinylated PSMA Fab on neutravidin plate, clonal phage supernatant, anti-M13 HRP detection.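 Further: wells were preincubated with blocking buffer either containing PSMA antigen or without it before crude phage supernatant was added, briefly incubated, then washed prior to detection.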
Procedure: as §1
In assay [3] the target is T2, Anti-PSMA Fab (SEQ ID NOs: 19, 20).
T2 construct: In the phage ELISA the Fab was biotinylated and captured on neutravidin coated plates; also called 006 PSMA Fab
Briefly: phage binding ELISA; clonal phage on biotinylated anti-PSMA Fab captured on neutravidin, anti-M13 HRP detection.
Procedure: as §1

For assay [4] the target is unchanged. Briefly: phage binding ELISA on captured anti-PSMA Fab; competitor: PSMA antigen.
Procedure: as §1
Assay [5] concerns the target T3, Anti-PSMA Fab (SEQ ID NOs: 19, 20).
T3 construct: Biotinylated and captured on neutravidin coated plates in the phage ELISA; also called 006 PSMA Fab
Briefly: phage binding ELISA; biotinylated Fab on neutravidin plate, anti-M13 HRP detection.
Procedure: as §1

Assay [6] has the same target. Briefly: phage binding ELISA on captured Fab; competitor PSMA antigen pre-incubated in the wells.
Procedure: as §1

Take PEHLCLPRWMCEGF (tested as clonal phage supernatant) [Phage-1808]: in assay [1], the “Anti-PSMA Fab signal in the presence of PSMA” value (shortened to “Anti-PSMA Fab signal”) was 0.135. For the same molecule, in assay [2], the “Anti-PSMA Fab (SEQ ID NOs: 19, 20) signal” value came to 1.78.

MVKWCTPAWMCEML [Phage-1820]: the “Anti-PSMA Fab (SEQ ID NOs: 19, 20) signal” value in assay [3] was 2.41. Further, the “Anti-PSMA Fab signal” value in assay [4] amounted to 0.113.

As to VEKMCRPAWMCWVM [Phage-1824], the “Anti-PSMA Fab (SEQ ID NOs: 19, 20) signal” value in assay [3] was determined as 2.37. Further, the “Anti-PSMA Fab signal” value in assay [4] was determined as 0.214.

For the molecule VNHWCVPTWMCAGF (tested as clonal phage supernatant) [Phage-1811], the “Anti-PSMA Fab signal” value in assay [1] was found to be 0.186. Also, the “Anti-PSMA Fab (SEQ ID NOs: 19, 20) signal” value in assay [2] was determined as 2.41.

B1: Phage-2193 (peptide)
peptide: ESHLCIPAWMCDVQ
notes: Clonal phage of the peptide-180 library, tested as crude phage supernatant; not shown: fused to pIII of the bacteriophage
For the molecule B1, the “Anti-PSMA Fab (SEQ ID NOs: 19, 20) signal” value in assay [5] is 1.63. In assay [6], the “Anti-PSMA Fab signal” value was 0.0973.

For the molecule YERACIPNWICEGF (tested as clonal phage supernatant) [Phage-1809], in assay [1], the “Anti-PSMA Fab signal” value came out at 0.0842. The “Anti-PSMA Fab (SEQ ID NOs: 19, 20) signal” value in assay [2] stood at 1.03.

Turning to VLKYCIPDWMCAGI (tested as clonal phage supernatant) [Phage-1816], in assay [1], the “Anti-PSMA Fab signal” value was determined as 0.0978. Besides, in assay [2], the “Anti-PSMA Fab (SEQ ID NOs: 19, 20) signal” value stood at 2.24.

TVAYCKPAWMCQGF (tested as clonal phage supernatant) [Phage-1813]: the “Anti-PSMA Fab signal” value in assay [1] stood at 0.108. Also, the “Anti-PSMA Fab (SEQ ID NOs: 19, 20) signal” value in assay [2] came out at 2.37.

With TTHVCIPSWMCSGF (tested as clonal phage supernatant) [Phage-1810], the “Anti-PSMA Fab signal” value in assay [1] was determined as 0.0668. Besides, the “Anti-PSMA Fab (SEQ ID NOs: 19, 20) signal” value in assay [2] was 2.15.

Consider VLKLCVPPWMCMAQ [Phage-1827], for which the “Anti-PSMA Fab (SEQ ID NOs: 19, 20) signal” value in assay [3] came out at 2.32. Also, in assay [4], the “Anti-PSMA Fab signal” value stood at 0.0968.

B2: Phage-2192 (peptide)
peptide: MTPWCKPAWMCQGI
notes: as for B1
For B2, the “Anti-PSMA Fab (SEQ ID NOs: 19, 20) signal” value in assay [5] came out at 1.63. Besides, in assay [6], the “Anti-PSMA Fab signal” value is 0.0994.

B3: Phage-2198 (peptide)
peptide: DVNWCTPPWMCWGF
notes: as for B1
On to B3, for which the “Anti-PSMA Fab (SEQ ID NOs: 19, 20) signal” value in assay [5] was determined as 1.62. Further, the “Anti-PSMA Fab signal” value in assay [6] amounted to 0.0743.

Turning to VVIKCKPEWMCSGF (tested as clonal phage supernatant) [Phage-1807], in assay [1], the “Anti-PSMA Fab signal” value was found to be 0.0946. In addition, in assay [2], the “Anti-PSMA Fab (SEQ ID NOs: 19, 20) signal” value stood at 2.18.

Take PERLCTPPWMCLGF [Phage-1817]: the “Anti-PSMA Fab (SEQ ID NOs: 19, 20) signal” value in assay [3] stood at 2.24. Also, the “Anti-PSMA Fab signal” value in assay [4] worked out at 0.0917.

Take ALKLCIPFWMCEGL [Phage-1819]: the “Anti-PSMA Fab (SEQ ID NOs: 19, 20) signal” value in assay [3] was determined as 2.44. The “Anti-PSMA Fab signal” value in assay [4] amounted to 0.129.

Turning to WENWCTPAWMCVGF [Phage-1822], the “Anti-PSMA Fab (SEQ ID NOs: 19, 20) signal” value in assay [3] is 2.37. The “Anti-PSMA Fab signal” value in assay [4] was 0.0932.

Consider MDNWCTPEWMCLGF [Phage-1828], for which the “Anti-PSMA Fab (SEQ ID NOs: 19, 20) signal” value in assay [3] came to 2.3. The “Anti-PSMA Fab signal” value in assay [4] was determined as 0.065.

Consider MDKWCTPPWMCDWL [Phage-1829], for which the “Anti-PSMA Fab (SEQ ID NOs: 19, 20) signal” value in assay [3] came to 2.3. The “Anti-PSMA Fab signal” value in assay [4] amounted to 0.136.

B4: Phage-2196 (peptide)
peptide: LADWCRPVWMCEGF
notes: as for B1
For the molecule B4, in assay [5], the “Anti-PSMA Fab (SEQ ID NOs: 19, 20) signal” value came out at 1.62. Further, in assay [6], the “Anti-PSMA Fab signal” value was found to be 0.287.

B5: Phage-2194 (peptide)
peptide: HAMWCIPAWMCENL
notes: as for B1
B5: the “Anti-PSMA Fab (SEQ ID NOs: 19, 20) signal” value in assay [5] turned out to be 1.63. The “Anti-PSMA Fab signal” value in assay [6] was determined as 0.0809.

In the case of TEIRCTPQWMCLGF [Phage-1823], in assay [3], the “Anti-PSMA Fab (SEQ ID NOs: 19, 20) signal” value was 2.37. Also, in assay [4], the “Anti-PSMA Fab signal” value stood at 0.0871.

B6: Phage-1821 (peptide)
peptide: IVKRCEPMWMCAGF
modifications: cysteine pairing not given here; also: displayed on phage as pIII fusion, pIII sequence and linker not given here
B6: the “Anti-PSMA Fab (SEQ ID NOs: 19, 20) signal” value in assay [3] stood at 2.38. Also, the “Anti-PSMA Fab signal” value in assay [4] turned out to be 0.264.

B7: Phage-2197 (peptide)
peptide: LEKWCIPSWMCDGM
notes: as for B1
With B7, in assay [5], the “Anti-PSMA Fab (SEQ ID NOs: 19, 20) signal” value stood at 1.62. Further, in assay [6], the “Anti-PSMA Fab signal” value was determined as 0.0637.

B8: Phage-1818 (peptide)
peptide: MERWCVPDWMCATF
modifications: cysteine pairing not given here; also: displayed on phage as pIII fusion, pIII sequence and linker not given here
As to B8, in assay [3], the “Anti-PSMA Fab (SEQ ID NOs: 19, 20) signal” value is 2.47. Further, the “Anti-PSMA Fab signal” value in assay [4] is 0.0578.

Regarding WENWCQPAWMCTGL [Phage-1826], the “Anti-PSMA Fab (SEQ ID NOs: 19, 20) signal” value in assay [3] worked out at 2.33. For the same molecule, the “Anti-PSMA Fab signal” value in assay [4] was 0.0691.

For EPKWCTPAWMCEWM [Phage-1830], the “Anti-PSMA Fab (SEQ ID NOs: 19, 20) signal” value in assay [3] turned out to be 2.29. Besides, the “Anti-PSMA Fab signal” value in assay [4] worked out at 0.0904.

B9: Phage-2195 (peptide)
peptide: LYKWCMPAWMCEQK
notes: as for B1
B9: the “Anti-PSMA Fab (SEQ ID NOs: 19, 20) signal” value in assay [5] was found to be 1.62. In assay [6], the “Anti-PSMA Fab signal” value was determined as 0.0702.

As for IVVKCVPSWMCEGF (tested as clonal phage supernatant) [Phage-1812], the “Anti-PSMA Fab signal” value in assay [1] is 0.102. Besides, the “Anti-PSMA Fab (SEQ ID NOs: 19, 20) signal” value in assay [2] amounted to 2.4.

Turning to ISKLCTPPWMCEML [Phage-1825], the “Anti-PSMA Fab (SEQ ID NOs: 19, 20) signal” value in assay [3] was 2.33. Also, the “Anti-PSMA Fab signal” value in assay [4] amounted to 0.0582.

As for TEVRCTPPWMCLGF (tested as clonal phage supernatant) [Phage-1814], the “Anti-PSMA Fab signal” value in assay [1] is 0.0981. Moreover, the “Anti-PSMA Fab (SEQ ID NOs: 19, 20) signal” value in assay [2] was 2.36.

In the case of ITPICKPAWICSGF (tested as clonal phage supernatant) [Phage-1806], the “Anti-PSMA Fab signal” value in assay [1] amounted to 0.0631. Also, the “Anti-PSMA Fab (SEQ ID NOs: 19, 20) signal” value in assay [2] stood at 2.2.

With VERLCTPAWMCHGF (tested as clonal phage supernatant) [Phage-1815], the “Anti-PSMA Fab signal” value in assay [1] was 0.214. Besides, in assay [2], the “Anti-PSMA Fab (SEQ ID NOs: 19, 20) signal” value was 2.36.
